Experiment [1] deals with T1, glycosylated CEA (human, UniProt P06731 35-685, glycosylated (sites and glycans not stated)).
T1 construct: whole, on cells; also called glycosylated CEA antigen; MG7
T1 sequence (looked up): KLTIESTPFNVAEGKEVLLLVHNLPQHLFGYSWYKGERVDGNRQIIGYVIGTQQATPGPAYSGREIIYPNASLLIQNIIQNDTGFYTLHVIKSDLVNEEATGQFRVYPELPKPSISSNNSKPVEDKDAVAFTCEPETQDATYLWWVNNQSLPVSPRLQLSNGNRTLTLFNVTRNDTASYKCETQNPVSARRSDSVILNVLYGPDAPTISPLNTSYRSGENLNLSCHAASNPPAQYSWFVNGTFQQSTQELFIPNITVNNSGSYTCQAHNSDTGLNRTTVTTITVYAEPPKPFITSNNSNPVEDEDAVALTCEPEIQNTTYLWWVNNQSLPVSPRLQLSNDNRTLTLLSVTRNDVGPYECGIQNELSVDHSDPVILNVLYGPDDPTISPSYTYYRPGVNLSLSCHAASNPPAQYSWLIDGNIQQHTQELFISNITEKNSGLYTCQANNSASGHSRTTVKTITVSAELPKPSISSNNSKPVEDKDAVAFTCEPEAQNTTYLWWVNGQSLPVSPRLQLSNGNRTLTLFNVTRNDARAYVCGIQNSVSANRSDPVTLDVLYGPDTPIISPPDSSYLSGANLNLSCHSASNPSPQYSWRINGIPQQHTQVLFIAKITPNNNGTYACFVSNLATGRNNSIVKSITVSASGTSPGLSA
The experiment in a line: flow cytometry on CRYPT cells, goat anti-mouse IgG-APC, logistic fit of MFI. As for the experimental part: (§1) The antibodies FM2, FM4, FM5, and FM6 were diluted with PBS buffer containing 1% BSA, and incubated with SW620-CEA or CRYPT cells (final concentrations: 50 μg/ml, 5 μg/ml, 0.5 μg/ml, 0.05 μg/ml, 0.005 μg/ml, 0.0005 μg/ml) for 1 hour at room temperature; the cells were washed twice with PBS buffer containing 1% BSA, and then incubated with Goat Anti Mouse IgG-APC for 1 hour; the cells were washed twice with PBS buffer containing 1% BSA and resuspended in PBS buffer; the APC fluorescence values of the cells were read using BD Accuri C6 FACS.
(§2) Using the median fluorescence value (MFI) as the ordinate and the antibody concentration (μg/ml) as the abscissa, the S-curve was fitted using a logistic equation to calculate the antibody binding EC50, the results are shown in the following table: […]
For orientation: A flow cytometer gives signals particle by particle.

In experiment [2] the target is T2, CEA overexpressed on SW620-CEA cells (CEACAM5, non-glycosylated state) (UniProt P06731 35-685).
T2 construct: whole, on cells; also called CEACAMS; CEA antigens with a lower degree of glycosylation
T2 sequence (looked up): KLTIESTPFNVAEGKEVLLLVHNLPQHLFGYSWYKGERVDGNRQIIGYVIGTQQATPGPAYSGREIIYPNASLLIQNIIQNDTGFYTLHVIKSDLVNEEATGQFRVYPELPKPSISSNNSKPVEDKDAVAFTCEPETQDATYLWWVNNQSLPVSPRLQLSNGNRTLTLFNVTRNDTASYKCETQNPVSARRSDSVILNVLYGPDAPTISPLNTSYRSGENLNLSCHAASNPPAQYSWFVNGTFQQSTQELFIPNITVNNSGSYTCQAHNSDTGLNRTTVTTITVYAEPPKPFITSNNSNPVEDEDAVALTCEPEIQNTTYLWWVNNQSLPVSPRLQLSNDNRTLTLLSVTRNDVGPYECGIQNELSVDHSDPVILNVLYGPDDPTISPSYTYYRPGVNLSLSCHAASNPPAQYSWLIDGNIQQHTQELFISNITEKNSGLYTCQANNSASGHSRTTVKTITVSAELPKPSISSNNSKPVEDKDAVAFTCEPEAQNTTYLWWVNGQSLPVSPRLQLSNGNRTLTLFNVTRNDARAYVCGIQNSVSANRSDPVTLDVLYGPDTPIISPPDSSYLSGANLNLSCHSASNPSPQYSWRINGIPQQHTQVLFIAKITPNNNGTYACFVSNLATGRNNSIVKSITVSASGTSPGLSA
The experiment in a line: flow cytometry on SW620-CEA cells, goat anti-mouse IgG-APC, logistic fit of MFI. How it is done: as §1, §2

The target in experiment [3] is T1, glycosylated CEA. The experiment in a line: ratio of EC50 values from flow cytometry on cells.

Here are results for three molecules from patent publication US20190167721A1 (FOURTH MILITARY MEDICAL UNIVERSITY XI AN, published 2019).

B1: FM2 (scFv, V domains shown)
VH: DVKLVESGGGLVKPGGSLKLSCAASGFTFSRYTMSWVRQTPEKRLEWVATISNSGSYTYYRDSVKGRFTISRDNAKNTLYLQMSSLKSEDTAMYYCTRGSPWGQGTLVTVSA
VL: DIQMTQSPDSLSASVGETVTITCGASENIYGALNWYQRKQGKSPQLLIYGATKLADGMSSRFSGSGSNRQYSLKISSLHPDDVATYYCQNVLSKPYAFGGGTKLEIK
notes: also called antibody FM2; FM2 single-chain antibody
The EC50 is the concentration giving half of the maximal effect. Low readings indicate a more potent agent, high ones a less potent agent. Turning to B1, the EC50 in experiment [1] turned out to be 0.02 µg/mL; in experiment [2] it was 0.8 µg/mL.

B2: FM4 (scFv, V domains shown)
VH: EVKLVESGGGLVQPGGSLRLSCSISGFTFTDYYMNWVRQSPGKALEWLGFIRNKVNGDTTEYSASVKGRFTISRDISQSILYLQMNTLRTEDSATYYCARDKGIAYYFDYWGQGTTLTVSS
VL: QIVLSQSPAILFASPGEKVTMTCRASSSVSYIHWYQQKPGSSPKPWIHGTSNLASGVPARFSGSGSGTSYSLTISRMEAEDAATYYCQQWSSNLSTFGGGTKLEIK
notes: also called antibody FM4; FM4 single-chain antibody
In the case of B2, the “selectivity (glycosylated CEA on CRYPT against non-glycosylated CEA on SW620-CEA)” value in experiment [3] was more than 100 fold. In experiment [1], this molecule gave an EC50 of 0.51 µg/mL.

B3: FM5 (scFv, V domains shown)
VH: QVQLKESGPGLVAPSQNLSITCTVSGFSLTSYAINWVRQPPGKGLEWLGIIWTGGGTNYNSALKSRLSISKDNSKSQVFLKMNSLQTDDTARYYCASGVYYFDYWGLGTTLTVSS
VL: DIVMTQSHKFMSTSVGDRVSITCKASQDVTTAVAWYQQKPGQSPKVLIFWASTRHTGVPDRFTGSGSGTDYTLTISSVQAEDLALYYCQQYYRTPRTFGGGTKLEIK
notes: also called antibody FM5; FM5 single-chain antibody
As to B3, the EC50 stood at 0.04 µg/mL in experiment [1] and 0.2 µg/mL in experiment [2].
